What was measured:
Type in all cases: physicochemical
[1] = Optical density at 600 nm of melanin solutions in oil (M818) and water; conditions: for Measurement at 600 nm, Water: Example 26: melanin alone in distilled water
Protocol: 10 mg of melanin were added to 1 ml of distilled water, and dissolved after raising pH with ammonium hydroxide solution. 50 ul of this concentrated solution was diluted 20-fold by addition to 950 ul of distilled water. To two rows of seven wells of a microplate 0, 12.5, 25, 37.5, and 50 ul of the dilute solution were added, and 12.5 and 25 ul of the concentrated solution. To each well of one row was added 100 ul of a soya phosphatidyl choline dispersion prepared by sonication for ten minutes with cooling at a concentration of 100 mg/ml. The other row was left untouched, the plate was mixed well, frozen at −20° C. and lyophilised overnight. The following day, 100 ul of M818 were added to wells in the row containing melanin/lipid complex, and 100 ul of distilled water was added to the wells in the row containing melanin alone. […] It will be seen from the table and accompanying graph that Beer-Lambert's law is obeyed over this concentration range (ie the response curve is linear), and that the behaviour of melanin is identical for both oil and aqueous solutions.

[2] = Centrifugation of melanin dispersions in M818
[3] = Dispersion of hydrophilic species/amphiphile array in hydrophobic solvent: visual optical clarity
[4] = Turbidity of oil preparations by optical density / absorbance (plate reader); conditions: Example 9: egg lysophosphatidyl choline, oleic acid, 4.6 mg insulin/g
Protocol: It is very much preferred that the preparations of the invention are optically clear and this can be monitored by measuring turbidity at visible wave lengths and, in some cases, by checking for sedimentation over a period of time. […]
Aprotinin was dissolved in distilled water at a concentration of 10 mg/ml. Hexadecyl phosphocholine (HDPoC) was dissolved in distilled water at a concentration of 100 mg/ml. To aliquots of 100 μl of aprotinin solution, volumes of HDPOC were added ranging from 0 through to 10, 20, 30, 40 to 50 μl. The mixtures were frozen at −20° C. and lyophilised overnight. The following day 100 μl of oleic acid was added to each sample and shaken for one hour at room temperature on an orbital shaker.
Octyl glucoside was dissolved in distilled water and dispensed into wells of a microplate to give the following amounts of amphiphile per well: −0, 0.5, 1.0, 1.5, 2.0, 2.5, 5, 7.5 and 10 mg. Aprotinin was dissolved in distilled water at a concentration of 5 mg/ml, and 100 μl was dispensed into each well above, containing 0.5 mg of protein. The plate was mixed well, frozen at −20° C. and lyophilised overnight. The following day, […] of oleic acid was added to each well. The plate was shaken at room temperature, and optical density measurements at 550 nm taken at intervals with a plate reader. A low absorbance value indicates a low level of scattering, and corresponds to effective dispersion of protein in oil.
The results, expressed in terms of optical density as a function of octyl glucoside concentration (at constant protein concentration) at different times after addition of oleic acid are given in the table and accompanying graph.

[5] = Stability of oil preparations on storage, standing or freeze-thawing (appearance)
Protocol: Egg PC SUVs at a concentration of 100 mg PC/ml were prepared as in Example 1. An insulin solution at 10 mg/ml was made by preparing an aqueous suspension at a slightly higher concentration, adding glacial acetic acid at a rate of 20 mg/g of insulin used, and then adding sufficient water to give the desired insulin concentration. After mixing and standing for 15 minutes, a clear solution was formed. To 1.25 ml of SUVs in a test-tube, were added 1.25 ml of insulin solution, and the mixture shell-frozen and freeze-dried overnight. The following day, 0.252 g of oleic acid was added and the tube vortexed to completely “wet” the lyophilate.
The HRPO solution was divided into two -equal portions, and one portion was put through five freeze-thaw cycles by cooling repeatedly to +4° C., solidifying the oleic acid each time, before bringing it back to room temperature.
The same procedure employed as described in Example 19, except that bovine brain sphingomyelin was used instead of phosphatidyl choline, resulting in proportions by weight of insulin/sphingomyelin/oleic acid of 5/50/200.

melanin
Measurement at 600 nm, Water ([1]; Concn 0.0625 mg/ml): 0.072 | Measurement at 600 nm, Water ([1]; Concn 0.125 mg/ml): 0.159 | Measurement at 600 nm, Water ([1]; Concn 0.187 mg/ml): 0.23 | Measurement at 600 nm, Water ([1]; Concn 0.25 mg/ml): 0.333 | Measurement at 600 nm, Water ([1]; Concn 1.25 mg/ml): 1.259 | Measurement at 600 nm, Water ([1]; Concn 2.5 mg/ml): 2.653 | Measurement at 600 nm, Miglyol ([1]; Example 26: melanin/soya PC complex in M818, Concn 0.0625 mg/ml): 0.078 | Measurement at 600 nm, Miglyol ([1]; Example 26: melanin/soya PC complex in M818, Concn 0.125 mg/ml): 0.157 | Measurement at 600 nm, Miglyol ([1]; Example 26: melanin/soya PC complex in M818, Concn 0.187 mg/ml): 0.23 | Measurement at 600 nm, Miglyol ([1]; Example 26: melanin/soya PC complex in M818, Concn 0.25 mg/ml): 0.306 | Measurement at 600 nm, Miglyol ([1]; Example 26: melanin/soya PC complex in M818, Concn 1.25 mg/ml): 1.565 | Measurement at 600 nm, Miglyol ([1]; Example 26: melanin/soya PC complex in M818, Concn 2.5 mg/ml): 2.857 | behaviour of dispersion on centrifugation ([2]; Example 26: dispersed in M818 by sonication in the absence of phosphatidyl choline): black dispersion, which sedimented out after centrifugation giving a clear supernatant | behaviour of dispersion on centrifugation ([2]; Example 26: melanin/lipid complex dispersed in M818): No such changes were observed after centrifugation

insulin
appearance of preparation ([3]; Example 5: egg PC SUVs, 0.252 g oleic acid, left overnight): yellow, optically clear dispersion displaying strong opalescence | appearance of dispersion ([3]; Example 6: 5 mg soy PC, 0.47 mg protein, 100 mg diolein, initially granular): became clear after 2 hours | appearance of dispersion ([3]; Example 8: DPPC SUVs 15 mg, 1.4 mg protein, 300 mg oleic acid): clear | appearance of dispersion ([3]; Example 9: egg lysophosphatidyl choline micelles, 0.3 g oleic acid): clear dispersion | insulin content of clear dispersion ([3]; Example 9: egg lysophosphatidyl choline, oleic acid): 4.6 mg insulin/g of oleic acid | appearance of dispersion ([3]; Example 10: soy PC SUVs, 300 mg Miglyol 810, following day): slightly opalescent | appearance of dispersion ([3]; Example 10: soy PC SUVs, 300 mg Miglyol 812, following day): completely clear | appearance of dispersion ([3]; Example 10: soy PC SUVs, 300 mg Miglyol 818, following day): completely clear | appearance of dispersion ([3]; Example 10: soy PC SUVs, 300 mg Miglyol 829, following day): turbid gel | appearance of dispersion ([3]; Example 10: soy PC SUVs, 300 mg Miglyol 840, following day): completely clear | appearance of solution ([3]; Example 20: bovine brain sphingomyelin, insulin/sphingomyelin/oleic acid 5/50/200, one hour mixing): completely clear solution | appearance of dispersions ([3]; Example 33: soy PC SUV, melts of tripalmitin, triheptadecanoin or tristearin with 2% oleic acid, 78 C, 1 to 2 hours): almost clear dispersions | appearance of dispersion ([3]; Example 36: AOT amphiphile, 200 mg octanol, standing overnight): clear after standing overnight | absorbance at 600 nm [4]: 0.023 | change in appearance (eg sedimentation) on storage ([5]; Example 5: 7 weeks storage under nitrogen in a sealed tube at room temperature): no apparent change in the appearance | appearance on standing ([5]; Example 20: sphingomyelin/oleic acid, room temperature for several days): solid opaque gel | appearance of gel on warming ([5]; Example 20: sphingomyelin/oleic acid, warming to 37° C.): clear solution again
